Patent US20190353654A1 (published 2019)

Experiments:
human insulin = human insulin (human, UniProt P01308 25-54; P01308 90-110); test: MicroScale Thermophoresis, 5 nM labeled receptor, insulin titrated
[1] = molecular target: T1, HIV-1 coat protein gp41-120 (HIV-1); test: MicroScale Thermophoresis, labeled receptor, ligand titrated, in 50% human serum
T1 construct: also called HIV coat proteins gp41-120; HIV surface protein gp41-120

[2] = molecular target: T1, HIV-1 coat protein gp41-120; test: MicroScale Thermophoresis, labeled receptor, ligand titrated, in buffer (1x PBS, 5 mM DTT)
CCL27 [3] = molecular target: T2, CCL27 (UniProt Q9Y4X3 25-112, limits assumed); test: MicroScale Thermophoresis, labeled receptor, ligand titrated, in 50% human serum
T2 sequence (looked up): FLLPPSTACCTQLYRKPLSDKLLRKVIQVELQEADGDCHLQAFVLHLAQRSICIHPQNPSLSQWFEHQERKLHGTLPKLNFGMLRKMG

CCL28 [4] = molecular target: T3, CCL28 (UniProt Q9NRJ3 20-127); test: as above
T3 construct: range 20-127; also called CCL2820-127
T3 sequence (looked up): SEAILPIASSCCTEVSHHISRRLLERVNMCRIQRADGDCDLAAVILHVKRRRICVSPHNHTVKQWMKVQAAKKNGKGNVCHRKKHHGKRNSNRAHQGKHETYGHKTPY

CCL27 [5] = molecular target: T2, CCL27; test: MicroScale Thermophoresis, labeled receptor, ligand titrated, in buffer (1x PBS, 5 mM DTT)
CCL28 [6] = molecular target: T3, CCL28; test: as above
CXCL11 [7] = molecular target: T4, CXCL11 (UniProt O14625 22-94); test: MicroScale Thermophoresis, labeled receptor, ligand titrated, in 50% human serum
T4 sequence (looked up): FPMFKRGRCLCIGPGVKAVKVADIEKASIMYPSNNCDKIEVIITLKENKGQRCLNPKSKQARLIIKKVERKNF

CXCL11 [8] = molecular target: T4, CXCL11; test: MicroScale Thermophoresis, labeled receptor, ligand titrated, in buffer (1x PBS, 5 mM DTT)
[9] = molecular target: T1, HIV-1 coat protein gp41-120; test: MicroScale Thermophoresis, labeled receptor, ligand titrated, in 50% human serum; remark: listed apart in the source

B1: CXCR4^QTY (receptor, not shown: small tags and cut ends)
chain: MEGISIYTSDNYTEEMGSGDYDSMKEPCFREENANFNKTYQPTTYSTTYQTGTTGQGQTTQTMGYQKKQRSMTDKYRQHQSTADQQYTTTQPYWATDATANWYFGNFQCKATHTTYTTQQYSSTQTQAYTSQDRYLAIVHATNSQRPRKQQAEKTTYTGTWTPAQQQTTPDYTYANVSEADDRYICDRFYPNDLWTTTYQYQHTMTGQTQPGTTTQSCYCTTTSKLSHSKGHQKRKALKTTTTQTQAYYACWQPYYTGTSTDSFILLEIIKQGCEFENTVHKWTSTTEAQAYYHCCQQPTQYAYQGAKYKTSAQHAQTSTSRGSSQKTQSKGKRGGHSSTSTESESSSFHSS
modifications: Receptor labelled with NT647 dye (RED-NHS, on amines) for MST; sites not specified
binding result (human insulin): no binding (tested: 0.153 nM-5,000 nM insulin)
Kd [1]: 185 nM
Kd [2]: 117 nM

B2: CCR10^QTY (receptor, not shown: small tags and cut ends)
chain: MGTEATEQVSWGHYSGDEEDAYSAEPLPELCYKADVQAFSRAFQPSVSLTVAAQGQAGNGQTQATHQAARRAARSPTSAHQQQQAQADQQQAQTQPYAAAGALQGWSLGSATCRTTSGQYSASYHAGYQYQACTSADRYVAIARALPAGPRPSTPGRAHQTSTTTWQQSQQQAQPAQQYSQDGQREGQRRCRLIFPEGLTQTVKGASATAQTAQGYAQPQGTMTACYALLGRTLLAARGPERRRALRTTTAQTAAYTTQQQPYSQAQQQDTADLLAARERSCPASKRKDVAQQTTSGQAQARCGQNPTQYAYQGLRFRQDLRRLLRGGSCPSGPQPRRGCPRRPRLSSCSAPTETHSLSWDN
modifications: Receptor labelled with NT647 dye (RED-NHS, on amines) for MST; sites not specified
notes: Expressed in SF9 insect cells and purified without detergent
binding result (human insulin): no binding (tested: 0.153 nM-5,000 nM insulin)
Kd (CCL27 [3]): 5.6 nM
Kd (CCL28 [4]): 21 nM
Kd (CCL27 [5]): 3.1 nM
Kd (CCL28 [6]): 9.3 nM

B3: CXCR7^QTY (receptor)
chain: MDLHLFDYSEPGNFSDISWPCNSSDCIVVDTVMCPNMPNKSTQQYTQSYTYTYTYTTGMTANSVVVWVNIQAKTTGYDTHCYTQNQATADQWTTQTTPTWTTSLVQHNQWPMGELTCKTTHQTYSTNQYGSTYYQTCMSVDRYLSITYFTNTPSSRKKMVRRTTCTQTWQQAYCTSQPDTYYQKTVTSASNNETYCRSFYPEHSIKEWLIGMEQTSTTQGYATPYSTTATYYYQLARAISASSDQEKHSSRKTTYSYTTTYQTCWQPYHTATQLDIFSILHYIPFTCRLEHALFTAQHTTQCQSQTHCCTNPTQYSYTNRNYRYELMKAFIFKYSAKTGLTKLIDASRVSETEYSALEQSTK
modifications: The receptor was labelled with NT647 (RED-NHS dye on lysines, positions not defined) for MST. The letters do not carry this.
notes: Expressed in SF9 insect cells and purified without detergent; not shown: C-terminal His tag
binding result (human insulin): no binding (tested: 0.153 nM-5,000 nM insulin)
Kd [1]: 7 nM
Kd (CXCL11 [7]): 28 nM
Kd (CXCL11 [8]): 16 nM
Kd [2]: 1.2 nM

B4: CCR5^QTY (receptor, not shown: small tags and cut ends)
chain: MDYQVSSPIYDINYYTSEPCQKINVKQIAARQQPPQYSQTFTYGFTGNMQTTQTQINCKRLKSMTDIYLQNQAISDQYYQQTTPYWAHYAAAQWDFGNTMCQQQTGQYFTGYYSGTYYTTQQTTDRYLAVVHAVFALKARTTTYGTTTSTTTWTTATYASQPGTTYTRSQKEGLHYTCSSHFPYSQYQFWKNFQTLKITIQGQVQPQQTMVTCYSGTQKTLLRCRNEKKRHRAVRQTFTTMTTYYQYWAPYNTTQQLNTFQEFFGLNNCSSSNRLDQAMQVTETQGMTHCCTNPTIYAYVGEKFRNYLLVFFQKHIAKRFCKCCSIFQQEAPERASSVYTRSTGEQEISVGL
modifications: Receptor labelled with NT647 dye (RED-NHS, on amines) for MST; sites not specified
notes: Expressed in SF9 insect cells and purified without detergent; also called detergent-free CCR5 variant
binding result (human insulin): no binding (tested: 0.153 nM-5,000 nM insulin)
Kd [9]: 4.3 nM
Kd [2]: 3.1 nM
